# Data taken from ChEMBL document CHEMBL1212771, “BEL-2, an extended-spectrum beta-lactamase with increased activity toward expanded-spectrum cephalosporins in Pseudomonas aeruginosa” (Antimicrob Agents Chemother, 2010).
# Where a chain is given by its changes, count along the chain named.
# B1: Beta-lactamase (Pseudomonas aeruginosa), D2SSQ3 (protein)
# chain: MKLLLYPLLLFLVIPAFAQADFEHAISDLEAHNQAKIGVALVSENGNLIQGYRANERFAMCSTFKLPLAALVLSRIDAGEENPERKLHYDSAFLEEYAPAAKRYVATGYMTVTEAIQSALQLSDNAAANLLLKEVGGPPLLTKYFRSLGDKVSRFDRIEPTLNTNTPGDERDTTTPMSMAQTVSKLIFGDTLTYKSKGQLRRLLIGNQTGDKTIRAGLPDSWVTGDKTGSCANGGRNDVAFFITTAGKKYVLSVYTNAPELQGEERALLIASVAKLARQYVVH
# B2: Beta-lactamase bla(BEL1) (Pseudomonas aeruginosa), Q3SAW3 (protein)
# chain: B1 chain with F155L
# Experiments:
# Pseudomonas aeruginosa [1] = assay: Antimicrobial activity against Pseudomonas aeruginosa 51170 expressing beta-lactamase BEL-1 by solid agar dilution method; format: functional
# Escherichia coli [2] = assay: Antimicrobial activity against Escherichia coli TOP10 by solid agar dilution method; format: functional
# Pseudomonas aeruginosa [3] = assay: Antimicrobial activity against Pseudomonas aeruginosa 531 expressing beta-lactamase BEL-2 by solid agar dilution method; format: functional
# Escherichia coli [4] = assay: Antimicrobial activity against Escherichia coli TOP10 expressing recombinant beta-lactamase BEL-1 by solid agar dilution method; format: functional
# Pseudomonas aeruginosa [5] = assay: Ratio of Km for Pseudomonas aeruginosa 51170 beta-lactamase BEL-1 to Km for Pseudomonas aeruginosa 531 beta-lactamase BEL-2
# Escherichia coli [6] = assay: Antimicrobial activity against Escherichia coli TOP10 expressing recombinant beta-lactamase BEL-2 by solid agar dilution method; format: functional
# [7] = substrate: CC(=O)OCC1=C(C(=O)O)N2C(=O)[C@@H](NC(=O)Cc3cccs3)[C@H]2SC1; assay: (§1) Ratio of Kcat to Km for Pseudomonas aeruginosa 531 beta-lactamase BEL-2
# [8] = substrate: CO/N=C(\C(=O)N[C@@H]1C(=O)N2C(C(=O)O)=C(COC(N)=O)CS[C@H]12)c1ccco1; assay: as §1
# [9] = substrate: C[C@H]1[C@H](NC(=O)/C(=N\OC(C)(C)C(=O)O)c2csc(N)n2)C(=O)N1S(=O)(=O)O; assay: as §1
# [10] = substrate: CO/N=C(\C(=O)N[C@@H]1C(=O)N2C(C(=O)[O-])=C(C[N+]3(C)CCCC3)CS[C@H]12)c1csc(N)n1; assay: as §1
# [11] = substrate: CC1(C)S[C@@H]2[C@H](NC(=O)Cc3ccccc3)C(=O)N2[C@H]1C(=O)O; assay: as §1
# [12] = substrate: O=C(Cc1cccs1)N[C@@H]1C(=O)N2C(C(=O)[O-])=C(C[n+]3ccccc3)CS[C@H]12; assay: as §1
# [13] = substrate: CC(C)(O/N=C(\C(=O)N[C@@H]1C(=O)N2C(C(=O)[O-])=C(C[n+]3ccccc3)CS[C@H]12)c1csc(N)n1)C(=O)O; assay: as §1
# [14] = substrate: CCN1CCN(C(=O)N[C@@H](C(=O)N[C@@H]2C(=O)N3[C@@H]2SC(C)(C)[C@@H]3C(=O)O)c2ccccc2)C(=O)C1=O; assay: as §1
# [15] = substrate: CO/N=C(\C(=O)N[C@@H]1C(=O)N2C(C(=O)O)=C(COC(C)=O)CS[C@H]12)c1csc(N)n1; assay: as §1
# [16] = substrate: CO[C@@]1(NC(=O)Cc2cccs2)C(=O)N2C(C(=O)O)=C(COC(N)=O)CS[C@@H]21; assay: (§2) Activity at Pseudomonas aeruginosa 531 beta-lactamase BEL-2
# [17] = substrate: CC(=O)OCC1=C(C(=O)O)N2C(=O)[C@@H](NC(=O)Cc3cccs3)[C@H]2SC1; assay: as §2
# [18] = substrate: CO/N=C(\C(=O)N[C@@H]1C(=O)N2C(C(=O)O)=C(COC(N)=O)CS[C@H]12)c1ccco1; assay: as §2
# [19] = substrate: C[C@H]1[C@H](NC(=O)/C(=N\OC(C)(C)C(=O)O)c2csc(N)n2)C(=O)N1S(=O)(=O)O; assay: as §2
# [20] = substrate: CO/N=C(\C(=O)N[C@@H]1C(=O)N2C(C(=O)[O-])=C(C[N+]3(C)CCCC3)CS[C@H]12)c1csc(N)n1; assay: as §2
# [21] = substrate: CC1(C)S[C@@H]2[C@H](NC(=O)Cc3ccccc3)C(=O)N2[C@H]1C(=O)O; assay: as §2
# [22] = substrate: C[C@@H](O)[C@H]1C(=O)N2C(C(=O)O)=C(SCCNC=N)C[C@H]12; assay: as §2
# [23] = substrate: O=C(Cc1cccs1)N[C@@H]1C(=O)N2C(C(=O)[O-])=C(C[n+]3ccccc3)CS[C@H]12; assay: as §2
# [24] = substrate: CC(C)(O/N=C(\C(=O)N[C@@H]1C(=O)N2C(C(=O)[O-])=C(C[n+]3ccccc3)CS[C@H]12)c1csc(N)n1)C(=O)O; assay: as §2
# [25] = substrate: CCN1CCN(C(=O)N[C@@H](C(=O)N[C@@H]2C(=O)N3[C@@H]2SC(C)(C)[C@@H]3C(=O)O)c2ccccc2)C(=O)C1=O; assay: as §2
# [26] = substrate: CO/N=C(\C(=O)N[C@@H]1C(=O)N2C(C(=O)O)=C(COC(C)=O)CS[C@H]12)c1csc(N)n1; assay: as §2
# [27] = substrate: CO[C@@]1(NC(=O)Cc2cccs2)C(=O)N2C(C(=O)O)=C(COC(N)=O)CS[C@@H]21; assay: (§3) Activity at Pseudomonas aeruginosa 51170 beta-lactamase BEL-1
# [28] = substrate: CC(=O)OCC1=C(C(=O)O)N2C(=O)[C@@H](NC(=O)Cc3cccs3)[C@H]2SC1; assay: as §3
# [29] = substrate: CO/N=C(\C(=O)N[C@@H]1C(=O)N2C(C(=O)O)=C(COC(N)=O)CS[C@H]12)c1ccco1; assay: as §3
# [30] = substrate: C[C@H]1[C@H](NC(=O)/C(=N\OC(C)(C)C(=O)O)c2csc(N)n2)C(=O)N1S(=O)(=O)O; assay: as §3
# [31] = substrate: CO/N=C(\C(=O)N[C@@H]1C(=O)N2C(C(=O)[O-])=C(C[N+]3(C)CCCC3)CS[C@H]12)c1csc(N)n1; assay: as §3
# [32] = substrate: CC1(C)S[C@@H]2[C@H](NC(=O)Cc3ccccc3)C(=O)N2[C@H]1C(=O)O; assay: as §3
# [33] = substrate: C[C@@H](O)[C@H]1C(=O)N2C(C(=O)O)=C(SCCNC=N)C[C@H]12; assay: as §3
# [34] = substrate: O=C(Cc1cccs1)N[C@@H]1C(=O)N2C(C(=O)[O-])=C(C[n+]3ccccc3)CS[C@H]12; assay: as §3
# [35] = substrate: CC(C)(O/N=C(\C(=O)N[C@@H]1C(=O)N2C(C(=O)[O-])=C(C[n+]3ccccc3)CS[C@H]12)c1csc(N)n1)C(=O)O; assay: as §3
# [36] = substrate: CCN1CCN(C(=O)N[C@@H](C(=O)N[C@@H]2C(=O)N3[C@@H]2SC(C)(C)[C@@H]3C(=O)O)c2ccccc2)C(=O)C1=O; assay: as §3
# [37] = substrate: CO/N=C(\C(=O)N[C@@H]1C(=O)N2C(C(=O)O)=C(COC(C)=O)CS[C@H]12)c1csc(N)n1; assay: as §3
# [38] = substrate: CC(=O)OCC1=C(C(=O)O)N2C(=O)[C@@H](NC(=O)Cc3cccs3)[C@H]2SC1; assay: (§4) Ratio of Kcat to Km for Pseudomonas aeruginosa 51170 beta-lactamase BEL-1
# [39] = substrate: CO/N=C(\C(=O)N[C@@H]1C(=O)N2C(C(=O)O)=C(COC(N)=O)CS[C@H]12)c1ccco1; assay: as §4
# [40] = substrate: C[C@H]1[C@H](NC(=O)/C(=N\OC(C)(C)C(=O)O)c2csc(N)n2)C(=O)N1S(=O)(=O)O; assay: as §4
# [41] = substrate: CO/N=C(\C(=O)N[C@@H]1C(=O)N2C(C(=O)[O-])=C(C[N+]3(C)CCCC3)CS[C@H]12)c1csc(N)n1; assay: as §4
# [42] = substrate: CC1(C)S[C@@H]2[C@H](NC(=O)Cc3ccccc3)C(=O)N2[C@H]1C(=O)O; assay: as §4
# [43] = substrate: O=C(Cc1cccs1)N[C@@H]1C(=O)N2C(C(=O)[O-])=C(C[n+]3ccccc3)CS[C@H]12; assay: as §4
# [44] = substrate: CCN1CCN(C(=O)N[C@@H](C(=O)N[C@@H]2C(=O)N3[C@@H]2SC(C)(C)[C@@H]3C(=O)O)c2ccccc2)C(=O)C1=O; assay: as §4
# [45] = substrate: CO/N=C(\C(=O)N[C@@H]1C(=O)N2C(C(=O)O)=C(COC(C)=O)CS[C@H]12)c1csc(N)n1; assay: as §4
molecule,measurement,setting,value
CO/N=C(\C(=O)N[C@@H]1C(=O)N2C(C(=O)O)=C(COC(N)=O)CS[C@H]12)c1ccco1 [CEFUROXIME],MIC,Pseudomonas aeruginosa [1],> 512 µg/mL
same,MIC,Escherichia coli [2],2 µg/mL
same,MIC,Pseudomonas aeruginosa [3],> 512 µg/mL
same,MIC,Escherichia coli [4],128 µg/mL
same,Ratio,Pseudomonas aeruginosa [5],300
same,MIC,Escherichia coli [6],32 µg/mL
CC(=O)OCC1=C(C(=O)O)N2C(=O)[C@@H](NC(=O)Cc3cccs3)[C@H]2SC1 [CEPHALOTHIN],MIC,Pseudomonas aeruginosa [1],> 512 µg/mL
same,MIC,Escherichia coli [2],2 µg/mL
same,MIC,Pseudomonas aeruginosa [3],> 512 µg/mL
same,MIC,Escherichia coli [4],256 µg/mL
same,MIC,Escherichia coli [6],256 µg/mL
CCN1CCN(C(=O)N[C@@H](C(=O)N[C@@H]2C(=O)N3[C@@H]2SC(C)(C)[C@@H]3C(=O)O)c2ccccc2)C(=O)C1=O [PIPERACILLIN],MIC,Pseudomonas aeruginosa [1],16 µg/mL
same,MIC,Escherichia coli [2],1 µg/mL
same,MIC,Pseudomonas aeruginosa [3],16 µg/mL
same,MIC,Escherichia coli [4],128 µg/mL
same,MIC,Escherichia coli [6],32 µg/mL
C[C@@H](O)[C@H]1C(=O)N2C(C(=O)O)=C(SCCNC=N)C[C@H]12 [IMIPENEM ANHYDROUS],MIC,Pseudomonas aeruginosa [3],1 µg/mL
CO[C@@]1(NC(=O)Cc2cccs2)C(=O)N2C(C(=O)O)=C(COC(N)=O)CS[C@@H]21 [CEFOXITIN],MIC,Pseudomonas aeruginosa [1],512 µg/mL
same,MIC,Escherichia coli [2],2 µg/mL
same,MIC,Pseudomonas aeruginosa [3],512 µg/mL
same,MIC,Escherichia coli [4],2 µg/mL
same,MIC,Escherichia coli [6],2 µg/mL
B1,kcat/Km,[7],2.2e+06 M⁻¹ s⁻¹
same,kcat/Km,[8],73000 M⁻¹ s⁻¹
same,kcat/Km,[9],280000 M⁻¹ s⁻¹
same,kcat/Km,[10],10000 M⁻¹ s⁻¹
same,kcat/Km,[11],300000 M⁻¹ s⁻¹
same,kcat/Km,[12],150000 M⁻¹ s⁻¹
same,kcat/Km,[13],47000 M⁻¹ s⁻¹
same,kcat/Km,[14],300000 M⁻¹ s⁻¹
same,kcat/Km,[15],290000 M⁻¹ s⁻¹
same,kcat,[16],< 0.01 s⁻¹
same,Km,[17],2 µM
same,kcat,[17],4.3 s⁻¹
same,Km,[18],12 µM
same,kcat,[18],0.88 s⁻¹
same,Km,[19],0.36 µM
same,kcat,[19],0.1 s⁻¹
same,Km,[20],0.3 µM
same,kcat,[20],0.003 s⁻¹
same,Km,[21],4 µM
same,kcat,[21],1.2 s⁻¹
same,kcat,[22],< 0.01 s⁻¹
same,Km,[23],8 µM
same,kcat,[23],1.2 s⁻¹
same,Km,[24],0.64 µM
same,kcat,[24],0.03 s⁻¹
same,Km,[25],0.3 µM
same,kcat,[25],1.1 s⁻¹
same,Km,[26],0.45 µM
same,kcat,[26],0.13 s⁻¹
B2,kcat,[27],< 0.01 s⁻¹
same,Km,[28],280 µM
same,kcat,[28],150 s⁻¹
same,Km,[29],40 µM
same,kcat,[29],10 s⁻¹
same,Km,[30],100 µM
same,kcat,[30],10 s⁻¹
same,Km,[31],150 µM
same,kcat,[31],1 s⁻¹
same,Km,[32],20 µM
same,kcat,[32],3 s⁻¹
same,kcat,[33],< 0.01 s⁻¹
same,Km,[34],130 µM
same,kcat,[34],30 s⁻¹
same,Km,[35],> 700 µM
same,kcat,[35],> 1.5 s⁻¹
same,Km,[36],15 µM
same,kcat,[36],2 s⁻¹
same,Km,[37],250 µM
same,kcat,[37],30 s⁻¹
same,kcat/Km,[38],540000 M⁻¹ s⁻¹
same,kcat/Km,[39],250000 M⁻¹ s⁻¹
same,kcat/Km,[40],100000 M⁻¹ s⁻¹
same,kcat/Km,[41],7000 M⁻¹ s⁻¹
same,kcat/Km,[42],150000 M⁻¹ s⁻¹
same,kcat/Km,[43],230000 M⁻¹ s⁻¹
same,kcat/Km,[44],130000 M⁻¹ s⁻¹
same,kcat/Km,[45],250000 M⁻¹ s⁻¹
